According to US20090117590A1, “Human calcium sensitive potassium channel beta3 subunit proteins, encoding nucleic acid and uses thereof” (priority 1999, published 2009):
Where two headings read alike, the source gives them in different places.

What was measured:
[1] = test system: α subunit of a human calcium sensitive potassium channel (human Slowpoke α); experiment: Electrophysiological analysis of β subunits co-expressed with the α subunit in Xenopus oocytes, inside-out patches; assay type: cell-based; conditions: for changes in the kinetics and voltage dependence of the channels formed by α subunits / V1/2 (half-maximal activation, Boltzmann fit to normalized conductances): inside-out patches, internal Ca2+ 30 μM; for changes in the kinetics and voltage dependence of the channels formed by α subunits: α and β cRNAs 1:10; for shift of the voltage dependence compared to channels containing only α subunits: micromolar intracellular Ca2+; for inactivation of calcium sensitive potassium currents: co-expressed with the α subunit; for V1/2 (half-maximal activation, Boltzmann fit to normalized conductances): α and β cRNAs 1:10 (β in excess), α subunit alone 20 mV
Description: The voltage clamp protocol consisted of a pre-pulse to −160 mV (200 ms), followed by 20 mV depolarizing steps from −80 to +80 mV (500 ms); holding potential was −80 mV; internal Ca^2+ was 30 μM. […] FIG. 7B: Boltzmann equations were fit to normalized conductances for the records shown in 7A, which were calculated from peak currents and plotted as function of test potential. V1/2 values are: 20 mV (α subunit alone); −55 mV (α+β2 subunit); 45.36 mV (α+β3α subunit); 20 mV (α+β3c subunit). […] Inactivation rates and fractional inactivating current were calculated as described in Example 2.
The β2, β3a, β3b, β3c, and β3d subunits of the human calcium sensitive potassium channel have been expressed in Xenopus oocytes, both by themselves and in combination with an α subunit of a large-conductance calcium-sensitive potassium channel (maxi-K channel). […] The rates of inactivation produced by β2, β3a and β3c are dependent upon voltage and internal calcium concentration; inactivation time constants reach a maximum at high depolarizations and high micromolar calcium for β2, β3a and β3c, τinact ˜30-40 ms at 80 mV with 30 μM intracellular Ca^2+. […] (McManus et al., 1995, Neuron 14:645-650).
Electrophysiological analysis: cRNAs were synthesized in vitro from plasmids encoding human Slowpoke α or the β2, β3a, β3b, β3c, or β3d subunits and injected into Xenopus oocytes (1.5 ng/oocyte of α subunit RNA +/−β subunit RNA at 1, 5, or 10× molar excess). Calcium sensitive potassium currents were recorded in inside-out patches. Recordings were performed under ionic conditions of symmetrical potassium. The standard pipette and bath solutions contained 116 mM potassium gluconate, 4 mM potassium chloride, 10 mM HEPES, pH 7.2. CaCl2 was added to the bath solution to give final concentrations of free ionized calcium of 3-30 μM, taking into account the stability constant for calcium gluconate (15.9 M^−1). Currents were recorded using an EPC-7 amplifier (HEKA). The pClamp6.0 program (Axon Instruments) was used to generate voltage-clamp commands for data acquisition, and for analysis. NPO-voltage relations were determined at 3, 10 and 30 μM bath calcium using two methods: (1) calculation of macroscopic conductance from peak or steady-state currents at test potentials (−80 to 80 mV), or (2) measurement or calculation of tail currents peaks (−80 mV) at test potentials. Boltzmann functions were fit to the data and used to derive the half-maximal activation parameter (V1/2). Maximal inactivation parameters (30 μM Ca^2+ and 80 mV) were calculated from current traces or averaged current traces. Inactivation rates were determined from single exponential fits. Fractional non-inactivating current was calculated as steady-state/peak current; fractional inactivating current was estimated as peak current minus steady-state current divided by peak current.

[2] = test system: α subunit of a human calcium sensitive potassium channel (human Slowpoke α); conditions: previously described (McManus et al., 1995); cited from earlier work

B1: β3b: β3b subunit of human calcium sensitive potassium channel, amino acid sequence SEQ. ID. NO.:6 (protein, listed as Homo Sapiens)
chain: MTAFPASGKKRETDYSDGDPLDVHKRLPSSTGEDRAVMLGFAMMGFSVLMFFLLGTTILKPFMLSIQREESTCTAIHTDIMDDWLDCAFTCGVHCHGQGKYPCLQVFVNLSHPGQKALLHYNEEAVQINPKCFYTPKCHQDRNDLLNSALDIKEFFDHKNGTPFSCFYSPASQSEDVILIKKYDQMAIFHCLFWPSLTLLGGALIVGMVRLTQHLSLLCEKYSTVVRDEVGGKVPYIEQHQFKLCIMRRSKGRAEKS
changes in the kinetics and voltage dependence of the channels formed by α subunits [1]: did not induce noticeable changes
shift of the voltage dependence compared to channels containing only α subunits [1]: do not shift the voltage dependence

B2: β1: previously known human calcium sensitive potassium channel β1 subunit, SEQ. ID. NO.:11, GenBank U25138 (protein)
chain: MVKKLVMAQKRGETRALCLGVTMVVCAVITYYILVTTVLPLYQKSVWTQESKCHLIETNIRDQEELKGKKVPQYPCLWVNVSAAGRWAVLYHTEDTRDQNQQCSYIPGSVDNYQTARADVEKVRAKFQEQQVFYCFSAPRGNETSVLFQRLYGPQALLFSLFWPTFLLTGGLLIIAMVKSNQYLSILAAQK
inactivation of calcium sensitive potassium currents [2]: do not induce inactivation

B3: β3d: β3d subunit of human calcium sensitive potassium channel, amino acid sequence SEQ. ID. NO.:10 (protein)
chain: MDFSPSSELGFHFVAFILLTRHRTAFPASGKKRETDYSDGDPLDVHKRLPSSTGEDRAVMLGFAMMGFSVLMFFLLGTTILKPFMLSIQREESTCTAIHTDIMDDWLDCAFTCGVHCHGQGKYPCLQVFVNLSHPGQKALLHYNEEAVQINPKCFYTPKCHQDRNDLLNSALDIKEFFDHKNGTPFSCFYSPASQSEDVILIKKYDQMAIFHCLFWPSLTLLGGALIVGMVRLTQHLSLLCEKYSTVVRDEVGGKVPYIEQHQFKLCIMRRSKGRAEKS
changes in the kinetics and voltage dependence of the channels formed by α subunits [1]: did not induce noticeable changes
shift of the voltage dependence compared to channels containing only α subunits [1]: do not shift the voltage dependence

B4: β3a: β3a subunit of human calcium sensitive potassium channel, amino acid sequence SEQ. ID. NO.:4 (protein, listed as Homo Sapiens)
chain: MQPFSIPVQITLQGSRRRQGRTAFPASGKKRETDYSDGDPLDVHKRLPSSTGEDRAVMLGFAMMGFSVLMFFLLGTTILKPFMLSIQREESTCTAIHTDIMDDWLDCAFTCGVHCHGQGKYPCLQVFVNLSHPGQKALLHYNEEAVQINPKCFYTPKCHQDRSDLLNSALDIKEFFDHKNGTPFSCFYSPASQSEDVILIKKYDQMAIFHCLFWPSLTLLGGALIVGMVRLTQHLSLLCEKYSTVVRDEVGGKVPYIEQHQFKLCIMRRSKGRAEKS
inactivation of calcium sensitive potassium currents [1]: induce inactivation
V1/2 (half-maximal activation, Boltzmann fit to normalized conductances) [1]: 45.36 mV
shift of the voltage dependence compared to channels containing only α subunits [1]: do not shift the voltage dependence

B5: β2: β2 subunit of human calcium sensitive potassium channel, amino acid sequence SEQ. ID. NO.:2 (protein, listed as Homo Sapiens)
chain: MFIWTSGRTSSSYRHDEKRNIYQKIRDHDLLDKRKTVTALKAGEDRAILLGLAMMVCSIMMYFLLGITLLRSYMQSVWTEESQCTLLNASITETFNCSFSCGPDCWKLSQYPCLQVYVNLTSSGEKLLLYHTEETIKINQKCSYIPKCGKNFEESMSLVNVVMENFRKYQHFSCYSDPEGNQKSVILTKLYSSNVLFHSLFWPTCMMAGGVAIVAMVKLTQYLSLLCERIQRINR
inactivation of calcium sensitive potassium currents [1]: induce inactivation
V1/2 (half-maximal activation, Boltzmann fit to normalized conductances) [1]: −55 mV
shift in the voltage dependence of activation ([1]; towards negative potentials, with 30 μM Ca2+ in the bath): ~80 mV

B6: β3c: β3c subunit of human calcium sensitive potassium channel, amino acid sequence SEQ. ID. NO.:8 (protein)
chain: MFPLLYELTAVSPSPFPQRTAFPASGKKRETDYSDGDPLDVHKRLPSSTGEDRAVMLGFAMMGFSVLMFFLLGTTILKPFMLSIQREESTCTAIHTDIMDDWLDCAFTCGVHCHGQGKYPCLQVFVNLSHPGQKALLHYNEEAVQINPKCFYTPKCHQDRSDLLNSALDIKEFFDHKNGTPFSCFYSPASQSEDVILIKKYDQMAIFHCLFWPSLTLLGGALIVGMVRLTQHLSLLCEKYSTVVRDEVGGKVPYIEQHQFKLCIMRRSKGRAEKS
inactivation of calcium sensitive potassium currents [1]: induce inactivation
V1/2 (half-maximal activation, Boltzmann fit to normalized conductances) [1]: 20 mV
shift of the voltage dependence compared to channels containing only α subunits [1]: do not shift the voltage dependence
